Data from paper PMC3050670.

What was measured:
[1] = target: HIV-1 CA A14C/E45C/W184A/M185A (HIV-1 (human immunodeficiency virus type 1)); test: SEC
[2] = target: HIV-1 CA N21C/A22C (HIV-1 (human immunodeficiency virus type 1)); test: cross-linking
[3] = target: HIV-1 CA A14C/E45C (HIV-1 (human immunodeficiency virus type 1)); test: cross-linking
[4] = target: HIV-1 CA A42C/T54C (HIV-1 (human immunodeficiency virus type 1)); test: cross-linking

**Q.** With “HIV-1 CA A14C/E45C/W184A/M185A (natural protein)” as the substance, how does the stoichiometry N [1] read?
**A.** 6

**Q.** For HIV-1 CA N21C/A22C (natural protein), which stoichiometry N [2] is on record?
**A.** 5

**Q.** With HIV-1 CA A14C/E45C (natural protein) as the substance, how does the crosslinking efficiency [3] read?
**A.** > 90%

**Q.** And the stoichiometry N [3]?
**A.** 6

**Q.** For HIV-1 CA A42C/T54C (natural protein), which crosslinked 6-mer band, share of the total protein [4] is on record?
**A.** 30%

**Q.** And the maximal crosslinking [4]?
**A.** 50%

**Q.** What about the stoichiometry N [4] of the same substance?
**A.** 6
